According to article doi:10.1101/2024.03.03.583237 (bioRxiv, 2024):

Assays:
Experiment in all cases: live-cell binding assay
SARS-CoV-2 NTD-mFc = SARS-CoV-2 NTD-mFc (SARS-CoV-2 Wuhan-Hu-1 (NC_045512), UniProt P0DTC2)
RaTG13 NTD-mFc = RaTG13 NTD-mFc (Bat coronavirus RaTG13, UniProt A0ABF7PLN6)
SARS-CoV-1 NTD-mFc = SARS-CoV-1 NTD-mFc (SARS-CoV-1 (NC_004718, Tor2), UniProt P59594)
ZC45 NTD-mFc = ZC45 NTD-mFc (Bat SARS-like coronavirus ZC45 …, UniProt A0A2R3SUW7)

B1: S2L20-CVR (scFv, V domains shown)
VH: EVQLVESGGGVVQPGGSLRLSCAASGFTFNSYGMHWVRQAPGKGLEWVAFIRYDGGNKYYADSVKGRFTISRDNSKNTLYLQMKSLRAEDTAVYYCANLKDSRYSGSYYDYWGQGTLVTVS
VL: not shown
- binding result (SARS-CoV-2 NTD-mFc): binds
- binding result (RaTG13 NTD-mFc): binds
- binding result (SARS-CoV-1 NTD-mFc): no binding
- binding result (ZC45 NTD-mFc): no binding
